Series [1] has as its target T1, I1 telomere-binding protein (UniProt P16714 1-312).
T1 sequence: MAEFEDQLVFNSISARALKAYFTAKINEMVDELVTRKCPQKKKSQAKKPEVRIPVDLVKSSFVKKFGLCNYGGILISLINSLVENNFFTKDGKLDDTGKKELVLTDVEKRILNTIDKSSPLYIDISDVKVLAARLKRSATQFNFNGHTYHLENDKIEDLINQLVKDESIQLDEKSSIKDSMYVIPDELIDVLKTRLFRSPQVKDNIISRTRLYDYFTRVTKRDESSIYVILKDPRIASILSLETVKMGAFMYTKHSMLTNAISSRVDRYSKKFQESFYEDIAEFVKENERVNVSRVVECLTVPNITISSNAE
Put plainly: EMSA, competition; 700 ng poly d(IC), 0-300 ng unlabeled S hairpin; reference. The following applies: protein: recombinant; tags: His6 (pET151/D-TOPO vector); label: 3' fill-in with Alexa Fluor 647-aha-dUTP (Results say Cy5-dUTP).

For series [2], the target named is T1, I1 telomere-binding protein. Put plainly: EMSA, competition; 700 ng poly d(IC), 0-300 ng unlabeled S hairpin; behaved much like S. As to conditions: protein: recombinant; tags: His6 (pET151/D-TOPO vector); label: 3' fill-in with Alexa Fluor 647-aha-dUTP (Results say Cy5-dUTP).

B1: S hairpin (VACV WR telomere, wild type) (structured_DNA)
DNA: ACATTTTTTTCTAGACACTAAATAAAATATTTAAAATATAATATTAATGTACTAAAACTTATATATTATTAATTTATCTAACTAAAGTTAGTAAATTATATATATAATTTTATAATTAATTTAATTTTACTAATTTTATTTAGTGTCTAGAAAAAAA
modifications: 5' phosphate
In the case of B1, the binding result in series [1] was “binds”.

B2: SΔ1–3 hairpin (structured_DNA)
DNA: ACATTTTTTTCTAGACACTAAATAAAATATTTAAAATATAATATTAATGTACTAAAATTATATATTAATTTACTAACTAAAGTTAGTAAATTAATATATAATTTTATAATTAATTTAATTTTACTAATTTTATTTAGTGTCTAGAAAAAAA
modifications: 5' phosphate
Consider B2, for which the binding result in series [2] is listed as “binds”.

These data come from article PMC8956199, “The mismatched nucleotides encoded in vaccinia virus flip-and-flop hairpin telomeres serve an essential role in virion maturation”.
